Results published in the supplement of paper PMC10065799, “High-throughput profiling of sequence recognition by tyrosine kinases and SH2 domains using bacterial peptide display” (eLife, 2023).

Tests used:
AncSZ = assay: phosphorylation enrichment, bacterial display (enrichment ratio); higher = better substrate or ligand; peptides without Tyr show the background
EPHB1 = EPHB1 (UniProt P54762); assay: as above
EPHB2 = EPHB2 (UniProt P29323); assay: as above
FGFR1 = FGFR1 (UniProt P11362); assay: as above
FGFR1, sequence (P11362 whole entry, looked up): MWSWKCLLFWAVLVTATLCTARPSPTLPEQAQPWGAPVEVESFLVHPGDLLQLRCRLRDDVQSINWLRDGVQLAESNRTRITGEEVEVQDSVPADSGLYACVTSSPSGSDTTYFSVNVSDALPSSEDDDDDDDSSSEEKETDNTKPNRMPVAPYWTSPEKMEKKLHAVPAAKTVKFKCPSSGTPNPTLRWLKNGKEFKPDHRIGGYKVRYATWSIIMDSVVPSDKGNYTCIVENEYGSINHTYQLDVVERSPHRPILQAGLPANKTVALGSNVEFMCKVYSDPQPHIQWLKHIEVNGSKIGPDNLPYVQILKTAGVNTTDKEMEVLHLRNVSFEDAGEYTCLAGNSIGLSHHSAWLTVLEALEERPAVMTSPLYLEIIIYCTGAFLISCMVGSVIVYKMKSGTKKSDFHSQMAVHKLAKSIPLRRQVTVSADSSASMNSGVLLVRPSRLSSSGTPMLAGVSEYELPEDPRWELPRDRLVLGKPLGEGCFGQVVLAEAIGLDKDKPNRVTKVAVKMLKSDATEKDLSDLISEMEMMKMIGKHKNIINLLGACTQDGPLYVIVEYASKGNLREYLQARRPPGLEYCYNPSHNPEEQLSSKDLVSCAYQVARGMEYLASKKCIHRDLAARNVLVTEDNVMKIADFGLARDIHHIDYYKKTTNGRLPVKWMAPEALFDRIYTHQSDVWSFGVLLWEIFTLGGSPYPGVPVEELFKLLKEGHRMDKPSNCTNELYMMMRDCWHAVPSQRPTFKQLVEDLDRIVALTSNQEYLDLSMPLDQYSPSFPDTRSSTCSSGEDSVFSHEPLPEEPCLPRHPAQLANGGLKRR

FGFR3 = FGFR3 (UniProt P22607); assay: as above
FGFR3, sequence (P22607 whole entry, looked up): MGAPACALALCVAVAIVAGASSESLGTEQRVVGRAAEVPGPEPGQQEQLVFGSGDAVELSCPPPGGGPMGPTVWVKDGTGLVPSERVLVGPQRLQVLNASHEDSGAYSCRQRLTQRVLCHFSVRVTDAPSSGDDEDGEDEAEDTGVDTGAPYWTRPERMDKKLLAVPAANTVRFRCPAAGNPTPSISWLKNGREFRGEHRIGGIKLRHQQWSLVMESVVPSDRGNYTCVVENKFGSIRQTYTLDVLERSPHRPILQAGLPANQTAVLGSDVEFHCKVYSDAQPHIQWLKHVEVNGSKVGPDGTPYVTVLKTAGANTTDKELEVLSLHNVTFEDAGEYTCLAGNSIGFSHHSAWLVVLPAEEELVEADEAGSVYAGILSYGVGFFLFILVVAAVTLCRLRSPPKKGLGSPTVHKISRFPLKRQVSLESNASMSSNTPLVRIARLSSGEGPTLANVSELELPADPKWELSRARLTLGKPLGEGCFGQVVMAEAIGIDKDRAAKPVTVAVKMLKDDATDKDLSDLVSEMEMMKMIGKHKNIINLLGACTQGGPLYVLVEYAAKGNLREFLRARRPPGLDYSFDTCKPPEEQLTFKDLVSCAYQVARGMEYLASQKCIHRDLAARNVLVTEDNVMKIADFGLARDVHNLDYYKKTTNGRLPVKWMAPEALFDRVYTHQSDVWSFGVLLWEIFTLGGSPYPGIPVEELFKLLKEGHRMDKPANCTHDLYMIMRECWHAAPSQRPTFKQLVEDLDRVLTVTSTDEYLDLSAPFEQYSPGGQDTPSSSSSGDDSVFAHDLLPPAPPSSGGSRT

Fer (mouse) = assay: as above
Fes = Fes (UniProt P07332); assay: as above
Fes, sequence (P07332 whole entry, looked up): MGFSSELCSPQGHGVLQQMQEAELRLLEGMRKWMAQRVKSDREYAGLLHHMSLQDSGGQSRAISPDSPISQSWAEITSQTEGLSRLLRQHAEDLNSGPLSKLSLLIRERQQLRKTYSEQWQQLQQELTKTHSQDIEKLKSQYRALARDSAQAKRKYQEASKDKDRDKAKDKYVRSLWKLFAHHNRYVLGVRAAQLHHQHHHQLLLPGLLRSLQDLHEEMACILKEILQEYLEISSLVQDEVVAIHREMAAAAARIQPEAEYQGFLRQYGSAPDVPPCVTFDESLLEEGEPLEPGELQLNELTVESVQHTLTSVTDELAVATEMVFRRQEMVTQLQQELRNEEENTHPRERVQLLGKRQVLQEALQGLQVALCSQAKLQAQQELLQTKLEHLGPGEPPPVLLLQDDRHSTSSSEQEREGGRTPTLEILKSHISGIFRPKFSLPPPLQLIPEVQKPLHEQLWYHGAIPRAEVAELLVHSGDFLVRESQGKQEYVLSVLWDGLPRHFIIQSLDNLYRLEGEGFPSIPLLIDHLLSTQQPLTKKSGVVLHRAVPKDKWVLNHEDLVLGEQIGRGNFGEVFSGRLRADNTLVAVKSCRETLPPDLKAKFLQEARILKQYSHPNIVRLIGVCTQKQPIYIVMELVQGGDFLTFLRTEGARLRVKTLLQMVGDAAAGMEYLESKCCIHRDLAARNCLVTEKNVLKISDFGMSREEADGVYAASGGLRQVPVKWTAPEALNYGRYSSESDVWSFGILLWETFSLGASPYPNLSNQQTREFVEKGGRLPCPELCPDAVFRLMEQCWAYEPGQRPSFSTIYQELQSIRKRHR

Fyn = Fyn (UniProt P06241); assay: as above
Fyn, sequence (P06241 whole entry, looked up): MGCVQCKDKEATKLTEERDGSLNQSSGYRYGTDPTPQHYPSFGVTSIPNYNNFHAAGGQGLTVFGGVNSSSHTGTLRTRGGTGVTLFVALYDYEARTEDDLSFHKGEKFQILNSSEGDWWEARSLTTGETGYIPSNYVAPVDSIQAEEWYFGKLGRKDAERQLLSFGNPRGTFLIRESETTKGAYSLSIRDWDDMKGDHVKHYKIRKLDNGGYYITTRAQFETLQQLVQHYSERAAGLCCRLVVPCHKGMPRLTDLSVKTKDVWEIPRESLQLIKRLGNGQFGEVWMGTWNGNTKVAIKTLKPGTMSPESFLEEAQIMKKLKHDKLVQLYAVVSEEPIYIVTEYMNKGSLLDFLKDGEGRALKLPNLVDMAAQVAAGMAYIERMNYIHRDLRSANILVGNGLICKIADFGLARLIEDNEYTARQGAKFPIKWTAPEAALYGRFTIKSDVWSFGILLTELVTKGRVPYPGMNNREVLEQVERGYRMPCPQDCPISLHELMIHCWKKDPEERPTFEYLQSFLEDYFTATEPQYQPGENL

Hck = Hck (UniProt P08631); assay: as above
Jak2 = Jak2 (UniProt O60674); assay: as above
MERTK = MERTK (UniProt Q12866); assay: as above
MERTK, sequence (Q12866 whole entry, looked up): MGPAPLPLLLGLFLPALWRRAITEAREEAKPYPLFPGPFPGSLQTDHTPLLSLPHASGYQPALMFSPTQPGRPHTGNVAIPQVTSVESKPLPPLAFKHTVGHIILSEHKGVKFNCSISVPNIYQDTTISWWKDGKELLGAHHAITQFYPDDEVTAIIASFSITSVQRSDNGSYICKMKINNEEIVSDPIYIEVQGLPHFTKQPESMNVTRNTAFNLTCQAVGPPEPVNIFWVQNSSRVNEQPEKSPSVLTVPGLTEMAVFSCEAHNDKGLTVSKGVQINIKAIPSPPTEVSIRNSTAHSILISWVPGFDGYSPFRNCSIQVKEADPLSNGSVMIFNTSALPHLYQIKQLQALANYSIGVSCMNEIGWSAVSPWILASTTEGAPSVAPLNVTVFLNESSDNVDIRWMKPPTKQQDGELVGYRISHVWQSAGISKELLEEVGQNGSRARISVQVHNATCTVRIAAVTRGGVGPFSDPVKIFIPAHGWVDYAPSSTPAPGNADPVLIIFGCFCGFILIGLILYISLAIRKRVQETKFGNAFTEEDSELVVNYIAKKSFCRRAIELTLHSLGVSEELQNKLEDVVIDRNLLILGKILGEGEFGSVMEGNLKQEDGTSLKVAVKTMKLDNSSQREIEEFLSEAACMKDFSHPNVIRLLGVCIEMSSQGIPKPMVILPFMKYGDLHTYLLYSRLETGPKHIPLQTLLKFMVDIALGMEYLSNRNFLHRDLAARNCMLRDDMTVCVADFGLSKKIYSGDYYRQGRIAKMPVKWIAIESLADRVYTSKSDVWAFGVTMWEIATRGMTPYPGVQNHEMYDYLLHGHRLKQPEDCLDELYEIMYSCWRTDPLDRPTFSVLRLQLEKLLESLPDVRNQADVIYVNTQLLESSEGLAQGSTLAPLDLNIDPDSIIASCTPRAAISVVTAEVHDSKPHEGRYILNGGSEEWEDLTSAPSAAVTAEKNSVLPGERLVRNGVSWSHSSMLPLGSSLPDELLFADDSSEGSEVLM

c-Abl (mouse) = assay: as above
c-Src = assay: as above
Grb2 SH2 = Grb2 SH2 (UniProt P62993); assay: SH2 binding enrichment of the phosphorylated peptide, bacterial display (enrichment ratio); higher = better substrate or ligand; peptides without Tyr show the background
SHP2-C SH2 = assay: as above
c-Src SH2 = assay: as above
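For SH2 binding enrichment of the phosphorylated peptide, bacterial display in this document: peptide library displayed on the E. coli surface as eCPX fusions, selected cells deep-sequenced, score is each peptide's frequency after selection divided by its frequency in the input.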
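For phosphorylation enrichment, bacterial display in this document: 11-residue human phosphosite peptides and single-mutation variants displayed on the E. coli surface, counted by deep sequencing, each peptide's frequency after selection divided by its frequency in the unselected input library; frequency after pTyr selection over input frequency; kinase dosed for 20-30% of maximal phosphorylation in three min.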

EPHB1, sequence (P54762 whole entry, looked up): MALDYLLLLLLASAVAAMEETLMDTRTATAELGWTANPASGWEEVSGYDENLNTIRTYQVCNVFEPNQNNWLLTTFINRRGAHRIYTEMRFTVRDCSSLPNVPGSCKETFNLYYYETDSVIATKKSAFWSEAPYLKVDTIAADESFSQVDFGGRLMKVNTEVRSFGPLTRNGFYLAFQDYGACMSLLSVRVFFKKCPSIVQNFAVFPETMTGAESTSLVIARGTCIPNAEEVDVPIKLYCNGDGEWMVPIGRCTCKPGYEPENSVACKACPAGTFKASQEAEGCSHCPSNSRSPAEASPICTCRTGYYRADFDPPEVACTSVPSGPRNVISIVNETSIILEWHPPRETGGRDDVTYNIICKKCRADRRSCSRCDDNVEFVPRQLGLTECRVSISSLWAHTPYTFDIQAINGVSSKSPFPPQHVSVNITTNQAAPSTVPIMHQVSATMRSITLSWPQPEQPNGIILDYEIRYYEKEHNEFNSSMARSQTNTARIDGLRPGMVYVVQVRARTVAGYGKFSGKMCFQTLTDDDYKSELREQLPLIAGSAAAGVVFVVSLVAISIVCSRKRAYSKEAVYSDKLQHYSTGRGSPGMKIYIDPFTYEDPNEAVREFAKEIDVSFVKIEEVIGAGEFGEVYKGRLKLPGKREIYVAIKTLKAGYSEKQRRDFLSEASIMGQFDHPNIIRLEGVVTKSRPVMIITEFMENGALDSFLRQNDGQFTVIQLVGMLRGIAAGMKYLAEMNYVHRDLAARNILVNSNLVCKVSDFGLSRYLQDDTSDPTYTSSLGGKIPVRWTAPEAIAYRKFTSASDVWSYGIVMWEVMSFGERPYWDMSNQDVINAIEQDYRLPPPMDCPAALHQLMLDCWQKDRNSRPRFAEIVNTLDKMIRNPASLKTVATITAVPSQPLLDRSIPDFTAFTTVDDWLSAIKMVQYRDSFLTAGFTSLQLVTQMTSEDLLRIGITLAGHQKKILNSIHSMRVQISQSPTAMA

Row | Sequence | SH2 binding enrichment (Grb2 SH2) | SH2 binding enrichment (SHP2-C SH2) | SH2 binding enrichment (c-Src SH2) | phosphorylation enrichment (AncSZ) | phosphorylation enrichment (EPHB1) | phosphorylation enrichment (EPHB2) | phosphorylation enrichment (FGFR1) | phosphorylation enrichment (FGFR3) | phosphorylation enrichment (Fer (mouse)) | phosphorylation enrichment (Fes) | phosphorylation enrichment (Fyn) | phosphorylation enrichment (Hck) | phosphorylation enrichment (Jak2) | phosphorylation enrichment (MERTK) | phosphorylation enrichment (c-Abl (mouse)) | phosphorylation enrichment (c-Src)
1 | AIQDAYMHITS [ADCY10_Y318] | 0.825 | 0.742 | 1.27 | 0.671 | 0.469 | 0.492 | 0.576 | 0.523 | 0.497 | 0.647 | 0.517 | 0.457 | 0.584 | 0.542 | 0.588 | 0.483
2 | ASTHIYQIMNH [ITK_Y588_V587I] | 0.923 | 1.41 | 5.44 | 0.562 | 8.67 | 2.63 | 0.735 | 0.624 | 6.35 | 0.754 | 4.85 | 5.65 | 0.469 | 6.62 | 1.24 | 4.36
3 | AGHEEYSAMRD [KRAS_Y64_Q61H] | 0.777 | 0.713 | 0.512 | 0.797 | 0.462 | 0.578 | 0.51 | 0.588 | 0.43 | 0.981 | 0.588 | 0.542 | 0.854 | 0.532 | 0.616 | 0.558
4 | VDSNPYSRLVA [UBA5_Y53_M57V] | 1.38 | 3.46 | 1.7 | 0.743 | 0.55 | 0.584 | 0.465 | 0.559 | 0.785 | 0.64 | 0.553 | 1.21 | 0.611 | 0.445 | 0.648 | 1.02
5 | PNAYIYVVQLP [L1CAM_Y420_A415P] | 1.36 | 1.14 | 0.862 | 1.53 | 1.08 | 1.35 | 1.6 | 1.61 | 0.47 | 1.76 | 0.941 | 0.832 | 1.75 | 2.25 | 1.18 | 1.31
6 | RAILNYIASKY [GSTA3_Y74] | 1.19 | 0.747 | 1.17 | 1.44 | 0.665 | 0.795 | 0.652 | 0.89 | 0.748 | 1.59 | 0.719 | 0.594 | 0.942 | 0.466 | 0.92 | 0.81
7 | KRLAVYIDEEA [EPM2A_Y304_P301L] | 0.85 | 0.486 | 0.507 | 1.11 | 0.665 | 0.615 | 0.514 | 0.837 | 0.524 | 1.14 | 0.601 | 0.496 | 1.23 | 0.484 | 0.781 | 0.578
8 | MRTMGYMPTEM [CABP5_Y62] | 0.789 | 1.08 | 0.407 | 0.683 | 0.428 | 0.509 | 0.63 | 0.538 | 0.459 | 0.732 | 0.388 | 0.456 | 0.507 | 0.344 | 0.447 | 0.355
9 | ERRLIYASDPK [VPS13D_Y864_T865A] | 0.837 | 0.589 | 0.625 | 0.634 | 0.443 | 0.391 | 0.46 | 0.479 | 0.395 | 0.678 | 0.418 | 0.473 | 0.506 | 0.45 | 0.545 | 0.475
10 | GHLFACDWISI [BEST1_Y227_Y227C_YF] | 0.945 | 0.806 | 0.749 | 0.937 | 0.408 | 0.522 | 0.613 | 0.639 | 0.487 | 1.01 | 0.45 | 0.469 | 0.711 | 0.396 | 0.531 | 0.386
11 | SLFNGYVYSGM [NEIL3_Y71_V76M] | 1.06 | 2.05 | 2.6 | 0.844 | 0.653 | 0.579 | 0.585 | 0.659 | 0.581 | 0.994 | 5.64 | 2.72 | 1.15 | 0.548 | 0.625 | 5.4
12 | MPLTKYLKRIK [CNGB3_Y200_E199K] | 1.27 | 1.03 | 0.834 | 0.641 | 0.425 | 0.377 | 0.472 | 0.488 | 0.425 | 0.623 | 0.377 | 0.534 | 0.477 | 0.431 | 0.498 | 0.391
13 | VEYAKYGSLQG [RET_Y809_R813Q] | 0.852 | 4.76 | 0.786 | 0.614 | 0.505 | 0.438 | 0.549 | 0.539 | 0.458 | 0.662 | 1.44 | 0.846 | 0.58 | 0.418 | 0.523 | 1.44
14 | PQDSAYHSGIQ [FLG_Y3940_S3935P] | 0.787 | 0.613 | 0.437 | 0.651 | 0.652 | 0.49 | 0.534 | 0.522 | 0.419 | 0.755 | 0.459 | 0.486 | 0.598 | 0.445 | 1.69 | 0.553

Continued, in another order:

Row | SH2 binding enrichment (Grb2 SH2) | SH2 binding enrichment (SHP2-C SH2) | SH2 binding enrichment (c-Src SH2) | Sequence | phosphorylation enrichment (AncSZ) | phosphorylation enrichment (EPHB1) | phosphorylation enrichment (EPHB2) | phosphorylation enrichment (FGFR1) | phosphorylation enrichment (FGFR3) | phosphorylation enrichment (Fer (mouse)) | phosphorylation enrichment (Fes) | phosphorylation enrichment (Fyn) | phosphorylation enrichment (Hck) | phosphorylation enrichment (Jak2) | phosphorylation enrichment (MERTK) | phosphorylation enrichment (c-Abl (mouse)) | phosphorylation enrichment (c-Src)
15 | 1.09 | 0.975 | 0.578 | MDFRSYPREFG [RBM10_Y44_YF] | 0.606 | 0.437 | 0.454 | 0.529 | 0.511 | 0.366 | 0.858 | 0.366 | 0.388 | 0.63 | 0.352 | 0.455 | 0.431
16 | 0.811 | 0.723 | 0.575 | CHSDDYVHISI [TSC1_Y406_L411I] | 1.65 | 0.898 | 0.67 | 1.65 | 1.29 | 0.597 | 1.39 | 0.532 | 0.573 | 1.07 | 0.457 | 0.879 | 0.524
17 | 0.991 | 0.684 | 0.897 | IFGVSYDEFRF [CFTR_Y512_YF] | 1.07 | 0.456 | 0.524 | 0.5 | 0.609 | 1.52 | 0.982 | 0.673 | 0.93 | 1.09 | 0.671 | 0.678 | 2.32
18 | 1.21 | 0.895 | 0.618 | QGRQTYLLQPA [DDR2_Y813_P815L] | 0.498 | 0.5 | 0.529 | 0.63 | 0.484 | 0.388 | 0.514 | 0.462 | 0.411 | 0.726 | 0.555 | 0.693 | 0.701
19 | 0.839 | 0.834 | 0.591 | FTRNYYVQAVL [CYBA_Y88_R90Q] | 1.01 | 0.66 | 0.558 | 1.59 | 2.67 | 0.512 | 0.981 | 0.486 | 0.521 | 1.06 | 0.887 | 0.813 | 0.538
20 | 1.03 | 0.697 | 0.592 | YTGDIYSSSNL [LZTR1_Y141_N143S] | 0.917 | 1.27 | 1.53 | 0.613 | 0.626 | 2.91 | 0.74 | 6.08 | 7.13 | 0.504 | 3.2 | 1.97 | 4.97
21 | 0.836 | 0.488 | 0.491 | TLQSMSGCDVG [HLA-B_Y123_Y123S] | 0.677 | 0.488 | 0.601 | 0.48 | 0.932 | 0.499 | 0.791 | 0.42 | 0.482 | 1.38 | 0.421 | 0.536 | 0.406
22 | 0.777 | 0.438 | 0.438 | AGGTRYRYVSQ [UCN3_Y95_R91G] | 0.529 | 0.574 | 0.525 | 0.397 | 0.381 | 0.377 | 0.616 | 0.491 | 0.435 | 0.417 | 0.519 | 0.474 | 0.507
23 | 0.993 | 0.687 | 1.14 | VKANTYEKYWL [GATM_Y100_P105L] | 0.794 | 0.661 | 0.5 | 0.582 | 0.541 | 2.47 | 0.837 | 0.668 | 0.583 | 0.733 | 0.875 | 0.644 | 0.652
24 | 1.15 | 0.504 | 0.798 | NRVEIYDKTVE [CYFIP1_Y108_E109D] | 0.905 | 0.495 | 0.521 | 0.534 | 0.519 | 0.435 | 0.938 | 0.443 | 0.682 | 0.755 | 0.4 | 0.576 | 0.47
25 | 0.879 | 0.597 | 0.557 | DIMDLYNQPEP [IL36A_Y96] | 1.5 | 0.547 | 0.602 | 0.491 | 0.688 | 0.66 | 1.21 | 0.69 | 0.817 | 1.55 | 0.481 | 0.852 | 1.06
26 | 0.772 | 0.59 | 0.459 | EFQKKYSDADI [CKAP5_Y1860_K1857Q_YF] | 0.837 | 0.399 | 0.383 | 0.442 | 0.544 | 0.378 | 0.921 | 0.422 | 0.487 | 0.594 | 0.344 | 0.745 | 0.35
27 | 0.894 | 0.696 | 0.505 | DVLVEYQEEGR [GNS_Y416_G418E] | 1.32 | 0.634 | 0.617 | 0.59 | 0.884 | 0.578 | 1.21 | 0.593 | 0.661 | 1.05 | 0.51 | 0.642 | 0.496
28 | 0.78 | 0.656 | 0.409 | ISIFYYAKGQP [MPZ_Y82_H81Y] | 1.38 | 0.532 | 0.61 | 0.563 | 0.674 | 0.496 | 1.72 | 0.52 | 0.429 | 1.36 | 0.504 | 1.19 | 0.649
29 | 0.789 | 0.772 | 0.696 | SLVVPYEPPEV [TP53_Y220_V216L] | 1.28 | 0.769 | 0.756 | 0.672 | 0.836 | 0.666 | 1.29 | 0.62 | 0.663 | 1.33 | 0.595 | 1.26 | 0.547
30 | 0.824 | 0.496 | 0.457 | DDSNLYINVKL [MTHFD1_Y52] | 1.45 | 0.777 | 0.804 | 0.702 | 0.994 | 0.751 | 1.63 | 0.443 | 0.607 | 1.56 | 0.424 | 1.08 | 0.442
31 | 0.807 | 0.605 | 0.512 | RREWFYEVIIA [BACE1_Y260_V265A_YF] | 0.927 | 0.515 | 0.391 | 0.784 | 0.764 | 0.66 | 0.733 | 0.593 | 0.598 | 0.807 | 1.24 | 0.483 | 0.498
32 | 0.793 | 0.643 | 0.777 | TEQMAYCPIQC [SHC4_Y403] | 1.17 | 0.434 | 0.676 | 0.609 | 0.737 | 1.14 | 1.02 | 0.421 | 0.949 | 1.26 | 0.678 | 0.754 | 0.949
33 | 0.93 | 0.825 | 0.391 | KERNQYGEVMV [MMP21_Y347] | 0.587 | 0.455 | 0.436 | 0.502 | 0.463 | 0.653 | 0.734 | 1.39 | 0.507 | 0.547 | 0.404 | 0.683 | 0.744
